Test results: the supplement of paper PMC10567573

B1: OAS1 (parent)
chain: YIGTHEYPHFSHRPSTLQAASTPQ

Variants of: B1
Assay: protein stability index of a GFP-peptide fusion (GPS, HEK-293T) (PSI 1-6); higher = more stable
Conditions: c terminus: a fixed tail appended
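Also: lentivirally expressed fusions sorted by FACS into six bins by GFP to DsRed ratio, PSI derived from sequencing read proportions per bin multiplied by bin number.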

Point of comparison: YIGTYEYPHFSHRPSTLQAASTPQ [H5Y], protein stability index 1.83. Against it:
- YIGTHEYPHFSNRPSTLQAASTPQ [H12N] — higher, 2.12
- YIGTHEYPHFSQRPSTLQAASTPQ [H12Q] — higher, 2.23
- YIGTHEYPHFSARPSTLQAASTPQ [H12A] — higher, 1.97
- YIGTHEYPHFSDRPSTLQAASTPQ [H12D] — higher, 2.49
- YIGTHEYPHFSPRPSTLQAASTPQ [H12P] — higher, 2.15
- YIGTHEYPHFSLRPSTLQAASTPQ [H12L] — higher, 2.39
- YIGTHEYPHFSERPSTLQAASTPQ [H12E] — higher, 2.25
- YIGTHEYPHFSCRPSTLQAASTPQ [H12C] — higher, 2.64
- YIGTHEYPHFSFRPSTLQAASTPQ [H12F] — higher, 2.21
- YIGTHEYPHFSMRPSTLQAASTPQ [H12M] — lower, 1.68
- YIGTHEYPHFSTRPSTLQAASTPQ [H12T] — higher, 2.03
- YIGTHEYPHFSYRPSTLQAASTPQ [H12Y] — higher, 1.92
- YIGTHEYPHFSGRPSTLQAASTPQ [H12G] — lower, 1.71
- YIGTHEYPHFSWRPSTLQAASTPQ [H12W] — lower, 1.46
- YIGTHEYPHFSRRPSTLQAASTPQ [H12R] — higher, 2.55
- YIGTHEYPHFSKRPSTLQAASTPQ [H12K] — higher, 2.07
- YIGTHEYPHFSIRPSTLQAASTPQ [H12I] — lower, 1.72
- YIGTHEYPHFSVRPSTLQAASTPQ [H12V] — higher, 1.93
- YIGTHEYPHFSSRPSTLQAASTPQ [H12S] — the same, 1.83
- YIGTHEYPHFRHRPSTLQAASTPQ [S11R] — higher, 2.09
- YIGTHEYPHFDHRPSTLQAASTPQ [S11D] — higher, 2.64
- YIGTHEYPHFMHRPSTLQAASTPQ [S11M] — higher, 1.93
- YIGTHEYPHFQHRPSTLQAASTPQ [S11Q] — higher, 2.71
- YIGTHEYPHFKHRPSTLQAASTPQ [S11K] — higher, 1.92
- YIGTHEYPHFYHRPSTLQAASTPQ [S11Y] — higher, 3.04
- YIGTHEYPHFAHRPSTLQAASTPQ [S11A] — higher, 1.96
- YIGTHEYPHFGHRPSTLQAASTPQ [S11G] — higher, 2.14
- YIGTHEYPHFFHRPSTLQAASTPQ [S11F] — higher, 3.55
- YIGTHEYPHFWHRPSTLQAASTPQ [S11W] — higher, 2.76
- YIGTHEYPHFCHRPSTLQAASTPQ [S11C] — higher, 2.65
- YIGTHEYPHFPHRPSTLQAASTPQ [S11P] — higher, 2.44
- YIGTHEYPHFEHRPSTLQAASTPQ [S11E] — higher, 2.56
- YIGTHEYPHFHHRPSTLQAASTPQ [S11H] — higher, 1.98
- YIGTHEYPHFIHRPSTLQAASTPQ [S11I] — higher, 2.71
- YIGTHEYPHFLHRPSTLQAASTPQ [S11L] — higher, 2.54
- YIGTHEYPHFTHRPSTLQAASTPQ [S11T] — lower, 1.76
- YIGTHEYPHFVHRPSTLQAASTPQ [S11V] — higher, 2.85
- YIGTHEYPHFNHRPSTLQAASTPQ [S11N] — higher, 2.31
- YIGTHEYPHNSHRPSTLQAASTPQ [F10N] — higher, 2.43
- YIGTHEYPHKSHRPSTLQAASTPQ [F10K] — higher, 2.73
- YIGTHEYPHTSHRPSTLQAASTPQ [F10T] — higher, 2.48
- YIGTHEYPHMSHRPSTLQAASTPQ [F10M] — higher, 2.73
- YIGTHEYPHHSHRPSTLQAASTPQ [F10H] — higher, 2.56
- YIGTHEYPHVSHRPSTLQAASTPQ [F10V] — higher, 2.12
- YIGTHEYPHESHRPSTLQAASTPQ [F10E] — higher, 3.25
- YIGTHEYPHYSHRPSTLQAASTPQ [F10Y] — lower, 1.79
- YIGTHEYPHQSHRPSTLQAASTPQ [F10Q] — higher, 2.41
- YIGTHEYPHRSHRPSTLQAASTPQ [F10R] — higher, 2.19
- YIGTHEYPHCSHRPSTLQAASTPQ [F10C] — higher, 2.24
- YIGTHEYPHWSHRPSTLQAASTPQ [F10W] — higher, 1.89
- YIGTHEYPHPSHRPSTLQAASTPQ [F10P] — higher, 2.06
- YIGTHEYPHSSHRPSTLQAASTPQ [F10S] — higher, 2.9
- YIGTHEYPHISHRPSTLQAASTPQ [F10I] — higher, 2.27
- YIGTHEYPHGSHRPSTLQAASTPQ [F10G] — higher, 2.88
- YIGTHEYPHASHRPSTLQAASTPQ [F10A] — higher, 2.57
- YIGTHEYPHLSHRPSTLQAASTPQ [F10L] — higher, 2.53
- YIGTHEYPHDSHRPSTLQAASTPQ [F10D] — higher, 3.14
- YIGTHECPHFSHRPSTLQAASTPQ [Y7C] — higher, 2.49
- YIGTHEDPHFSHRPSTLQAASTPQ [Y7D] — higher, 3.16
- YIGTHERPHFSHRPSTLQAASTPQ [Y7R] — higher, 2.12
- YIGTHEIPHFSHRPSTLQAASTPQ [Y7I] — higher, 2.44
- YIGTHEQPHFSHRPSTLQAASTPQ [Y7Q] — higher, 2.65
- YIGTHEFPHFSHRPSTLQAASTPQ [Y7F] — lower, 1.68
- YIGTHEHPHFSHRPSTLQAASTPQ [Y7H] — higher, 2.18
- YIGTHETPHFSHRPSTLQAASTPQ [Y7T] — higher, 2.3
- YIGTHEKPHFSHRPSTLQAASTPQ [Y7K] — higher, 3.34
- YIGTHENPHFSHRPSTLQAASTPQ [Y7N] — higher, 2.15
- YIGTHESPHFSHRPSTLQAASTPQ [Y7S] — higher, 2.55
- YIGTHEGPHFSHRPSTLQAASTPQ [Y7G] — higher, 1.98
- YIGTHEEPHFSHRPSTLQAASTPQ [Y7E] — higher, 3.16
- YIGTHELPHFSHRPSTLQAASTPQ [Y7L] — higher, 2.06
- YIGTHEAPHFSHRPSTLQAASTPQ [Y7A] — higher, 2.23
- YIGTHEVPHFSHRPSTLQAASTPQ [Y7V] — higher, 2.12
- YIGTHEMPHFSHRPSTLQAASTPQ [Y7M] — higher, 2.37
- YIGTHEYPHFSHRPCTLQAASTPQ [S15C] — lower, 1.61
- YIGTHEYPHFSHRPRTLQAASTPQ [S15R] — higher, 1.96
- YIGTHEYPHFSHRPMTLQAASTPQ [S15M] — lower, 1.6
- YIGTHEYPHFSHRPPTLQAASTPQ [S15P] — lower, 1.62
- YIGTHEYPHFSHRPHTLQAASTPQ [S15H] — lower, 1.82
- YIGTHEYPHFSHRPFTLQAASTPQ [S15F] — higher, 2.67
- YIGTHEYPHFSHRPQTLQAASTPQ [S15Q] — higher, 1.99
- YIGTHEYPHFSHRPATLQAASTPQ [S15A] — higher, 2.13
- YIGTHEYPHFSHRPVTLQAASTPQ [S15V] — higher, 2
- YIGTHEYPHFSHRPYTLQAASTPQ [S15Y] — lower, 1.79
- YIGTHEYPHFSHRPNTLQAASTPQ [S15N] — higher, 2.24
- YIGTHEYPHFSHRPITLQAASTPQ [S15I] — higher, 1.85
- YIGTHEYPHFSHRPETLQAASTPQ [S15E] — higher, 2.05
- YIGTHEYPHFSHRPTTLQAASTPQ [S15T] — higher, 1.94
- YIGTHEYPHFSHRPWTLQAASTPQ [S15W] — higher, 3.2
- YIGTHEYPHFSHRPKTLQAASTPQ [S15K] — lower, 1.82
- YIGTHEYPHFSHRPDTLQAASTPQ [S15D] — higher, 2.1
- YIGTHEYPHFSHRPGTLQAASTPQ [S15G] — lower, 1.79
- YIGTHEYPHFSHRPLTLQAASTPQ [S15L] — lower, 1.69
